Data: publication PMC11761706

Target: T1, Loz1AZZ (Schizosaccharomyces pombe, UniProt Q9UTA1 426-522)
T1 sequence: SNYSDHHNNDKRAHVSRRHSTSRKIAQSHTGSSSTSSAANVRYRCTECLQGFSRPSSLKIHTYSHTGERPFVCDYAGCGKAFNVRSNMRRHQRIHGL
Experiment: NMR

B1: LRE DNA 14 bp (dsDNA)
DNA 1: GCGACGATCATTGG
DNA 2: CCAATGATCGTCGC
B1: binds.
